According to patent US20250066503A1, “CELL INJURY INDUCING THERAPEUTIC DRUG FOR USE IN CANCER THERAPY” (CHUGAI SEIYAKU KABUSHIKI KAISHA, priority 2016, published 2025):
Numbering of substitutions follows the chain as printed.

B1: GCH054-G1dh/none-Hi-Kn010G3/L0262-k0 (antibody, V domains shown)
VH: QVQLVQSGAEVKKPGASVTVSCKASGYTFTDYEMHWIRQPPGEGLEWIGAIDGETPDTAYSEKFKGRVTLTADKSTSTAYMELSSLTSEDTAVYYCTRFYSYTYWGQGTLVTVSS
VL: DIVMTQSPLSLPVTPGEPASISCRSSQPPVHSNRNTYLHWYQQKPGQAPRLLIYKVSNRFSGVPDRFSGSGSGTDFTLKISRVEAEDVGVYYCAQGTQVPYTFGQGTKLEIK
notes: one-arm
B2: GCH054-G1dh/none-Hi-Kn010G3/TR01L015-k0 (antibody, V domains shown)
VH: B1 VH
VL: B1 VL with P28S, Q42L, A48S, R50Q, A94G
notes: one-arm
B3: GCH054-G1dh/none-Hi-Kn010G3/TR01L016-k0 (antibody, V domains shown)
VH: B1 VH
VL: B1 VL with P28S, Q42L, A48S, R50Q, A94Y
notes: one-arm
B4: GCH054-G1dh/none-Hi-Kn010G3/TR01L018-k0 (antibody, V domains shown)
VH: B1 VH
VL: B1 VL with R24Q, S25A, Q27E, P28S, Q42L, A48S, R50Q, A94G
notes: one-arm
B5: GCH054-G1dh/none-Hi-Kn010G3/TR01L019-k0 (antibody, V domains shown)
VH: B1 VH
VL: B1 VL with R24Q, S25A, Q27E, P28S, Q42L, A48S, R50Q, A94Y
notes: one-arm
B6: GCH055-G1dh/none-Hi-Kn010G3/L0200-k0 (antibody, V domains shown)
VH: B1 VH with E62D
VL: B1 VL with S25P, P28S, A94G
notes: one-arm
B7: GCH055-G1dh/none-Hi-Kn010G3/L0215-k0 (antibody, V domains shown)
VH: B1 VH with E62D
VL: B1 VL with L38I, A94G
notes: one-arm
B8: GCH056-G1dh/none-Hi-Kn010G3/L0215-k0 (antibody, V domains shown)
VH: B1 VH with E62Q, K65E
VL: B1 VL with L38I, A94G
notes: one-arm
B9: GCH056-G1dh/none-Hi-Kn010G3/L0262-k0 (antibody, V domains shown)
VH: B1 VH with E62Q, K65E
VL: B1 VL
notes: one-arm
B10: GCH057-G1dh/none-Hi-Kn010G3/L0215-k0 (antibody, V domains shown)
VH: B1 VH with K65E
VL: B1 VL with L38I, A94G
notes: one-arm
B11: GCH060-G1dh/none-Hi-Kn010G3/L0200-k0 (antibody, V domains shown)
VH: B1 VH with T30E, E62Q, K65E, S88E
VL: B1 VL with S25P, P28S, A94G
notes: one-arm
B12: GCH065-G1dh/none-Hi-Kn010G3/L0262-k0 (antibody, V domains shown)
VH: B1 VH with E54P
VL: B1 VL
notes: one-arm
B13: GCH065-G1dh/none-Hi-Kn010G3/L0272-k0 (antibody, V domains shown)
VH: B1 VH with E54P
VL: B1 VL with P29L, N35Q, A94G
notes: one-arm
B14: GCH094-G1dh/none-Hi-Kn010G3/L0246-k0 (antibody, V domains shown)
VH: B1 VH with I37V, P40A, I48M
VL: B1 VL with P28S, L38I, H39Q, A94S
notes: one-arm
B15: GCH094-G1dh/none-Hi-Kn010G3/L0270-k0 (antibody, V domains shown)
VH: B1 VH with I37V, P40A, I48M
VL: B1 VL with P28S, P29L, N35Q, A94G
notes: one-arm
B16: GCH094-G1dh/none-Hi-Kn010G3/L0271-k0 (antibody, V domains shown)
VH: B1 VH with I37V, P40A, I48M
VL: B1 VL with N35Q, A94G
notes: one-arm
B17: GCH094-G1dh/none-Hi-Kn010G3/L0272-k0 (antibody, V domains shown)
VH: B1 VH with I37V, P40A, I48M
VL: B1 VL with P29L, N35Q, A94G
notes: one-arm
B18: H0610-G1dh/none-Hi-Kn010G3/L0002-k0 (antibody, V domains shown)
VH: B1 VH with T19K, E43Q, E54K, E62Q
VL: B1 VL with S25A, P28S, P29L, A94G
notes: one-arm
B19: H0610-G1dh/none-Hi-Kn010G3/L0003-k0 (antibody, V domains shown)
VH: B1 VH with T19K, E43Q, E54K, E62Q
VL: B1 VL with S25I, P28S, P29L, A94G
notes: one-arm
B20: H0610-G1dh/none-Hi-Kn010G3/L0006-k0 (antibody, V domains shown)
VH: B1 VH with T19K, E43Q, E54K, E62Q
VL: B1 VL with S25P, P28S, P29L, A94G
notes: one-arm
B21: H0610-G1dh/none-Hi-Kn010G3/L0007-k0 (antibody, V domains shown)
VH: B1 VH with T19K, E43Q, E54K, E62Q
VL: B1 VL with S25T, P28S, P29L, A94G
notes: one-arm
B22: H0610-G1dh/none-Hi-Kn010G3/L0008-k0 (antibody, V domains shown)
VH: B1 VH with T19K, E43Q, E54K, E62Q
VL: B1 VL with S25V, P28S, P29L, A94G
notes: one-arm
B23: H0610-G1dh/none-Hi-Kn010G3/L0009-k0 (antibody, V domains shown)
VH: B1 VH with T19K, E43Q, E54K, E62Q
VL: B1 VL with S26P, P28S, P29L, A94G
notes: one-arm
B24: H0610-G1dh/none-Hi-Kn010G3/L0012-k0 (antibody, V domains shown)
VH: B1 VH with T19K, E43Q, E54K, E62Q
VL: B1 VL with P28S, P29F, A94G
notes: one-arm
B25: H0610-G1dh/none-Hi-Kn010G3/L0013-k0 (antibody, V domains shown)
VH: B1 VH with T19K, E43Q, E54K, E62Q
VL: B1 VL with P28S, P29I, A94G
notes: one-arm
B26: H0610-G1dh/none-Hi-Kn010G3/L0014-k0 (antibody, V domains shown)
VH: B1 VH with T19K, E43Q, E54K, E62Q
VL: B1 VL with P28S, P29M, A94G
notes: one-arm
B27: H0610-G1dh/none-Hi-Kn010G3/L0016-k0 (antibody, V domains shown)
VH: B1 VH with T19K, E43Q, E54K, E62Q
VL: B1 VL with P28S, P29V, A94G
notes: one-arm
B28: H0610-G1dh/none-Hi-Kn010G3/L0032-k0 (antibody, V domains shown)
VH: B1 VH with T19K, E43Q, E54K, E62Q
VL: B1 VL with P28S, P29L, H31R, A94G
notes: one-arm
B29: H0610-G1dh/none-Hi-Kn010G3/L0038-k0 (antibody, V domains shown)
VH: B1 VH with T19K, E43Q, E54K, E62Q
VL: B1 VL with P28S, P29L, S32F, A94G
notes: one-arm
B30: H0610-G1dh/none-Hi-Kn010G3/L0039-k0 (antibody, V domains shown)
VH: B1 VH with T19K, E43Q, E54K, E62Q
VL: B1 VL with P28S, P29L, S32H, A94G
notes: one-arm
B31: H0610-G1dh/none-Hi-Kn010G3/L0041-k0 (antibody, V domains shown)
VH: B1 VH with T19K, E43Q, E54K, E62Q
VL: B1 VL with P28S, P29L, S32L, A94G
notes: one-arm
B32: H0610-G1dh/none-Hi-Kn010G3/L0042-k0 (antibody, V domains shown)
VH: B1 VH with T19K, E43Q, E54K, E62Q
VL: B1 VL with P28S, P29L, S32M, A94G
notes: one-arm
B33: H0610-G1dh/none-Hi-Kn010G3/L0043-k0 (antibody, V domains shown)
VH: B1 VH with T19K, E43Q, E54K, E62Q
VL: B1 VL with P28S, P29L, S32N, A94G
notes: one-arm
B34: H0610-G1dh/none-Hi-Kn010G3/L0044-k0 (antibody, V domains shown)
VH: B1 VH with T19K, E43Q, E54K, E62Q
VL: B1 VL with P28S, P29L, S32P, A94G
notes: one-arm
B35: H0610-G1dh/none-Hi-Kn010G3/L0045-k0 (antibody, V domains shown)
VH: B1 VH with T19K, E43Q, E54K, E62Q
VL: B1 VL with P28S, P29L, S32Q, A94G
notes: one-arm
B36: H0610-G1dh/none-Hi-Kn010G3/L0046-k0 (antibody, V domains shown)
VH: B1 VH with T19K, E43Q, E54K, E62Q
VL: B1 VL with P28S, P29L, S32V, A94G
notes: one-arm
B37: H0610-G1dh/none-Hi-Kn010G3/L0047-k0 (antibody, V domains shown)
VH: B1 VH with T19K, E43Q, E54K, E62Q
VL: B1 VL with P28S, P29L, S32W, A94G
notes: one-arm
B38: H0610-G1dh/none-Hi-Kn010G3/L0062-k0 (antibody, V domains shown)
VH: B1 VH with T19K, E43Q, E54K, E62Q
VL: B1 VL with P28S, P29L, N35D, A94G
notes: one-arm
B39: H0610-G1dh/none-Hi-Kn010G3/L0063-k0 (antibody, V domains shown)
VH: B1 VH with T19K, E43Q, E54K, E62Q
VL: B1 VL with P28S, P29L, N35E, A94G
notes: one-arm
B40: H0610-G1dh/none-Hi-Kn010G3/L0064-k0 (antibody, V domains shown)
VH: B1 VH with T19K, E43Q, E54K, E62Q
VL: B1 VL with P28S, P29L, N35F, A94G
notes: one-arm
B41: H0610-G1dh/none-Hi-Kn010G3/L0065-k0 (antibody, V domains shown)
VH: B1 VH with T19K, E43Q, E54K, E62Q
VL: B1 VL with P28S, P29L, N35G, A94G
notes: one-arm
B42: H0610-G1dh/none-Hi-Kn010G3/L0066-k0 (antibody, V domains shown)
VH: B1 VH with T19K, E43Q, E54K, E62Q
VL: B1 VL with P28S, P29L, N35H, A94G
notes: one-arm
B43: H0610-G1dh/none-Hi-Kn010G3/L0069-k0 (antibody, V domains shown)
VH: B1 VH with T19K, E43Q, E54K, E62Q
VL: B1 VL with P28S, P29L, N35M, A94G
notes: one-arm
B44: H0610-G1dh/none-Hi-Kn010G3/L0075-k0 (antibody, V domains shown)
VH: B1 VH with T19K, E43Q, E54K, E62Q
VL: B1 VL with P28S, P29L, N35W, A94G
notes: one-arm
B45: H0610-G1dh/none-Hi-Kn010G3/L0079-k0 (antibody, V domains shown)
VH: B1 VH with T19K, E43Q, E54K, E62Q
VL: B1 VL with P28S, P29L, L38I, A94G
notes: one-arm
B46: H0610-G1dh/none-Hi-Kn010G3/L0082-k0 (antibody, V domains shown)
VH: B1 VH with T19K, E43Q, E54K, E62Q
VL: B1 VL with P28S, P29L, L38V, A94G
notes: one-arm
B47: H0610-G1dh/none-Hi-Kn010G3/L0085-k0 (antibody, V domains shown)
VH: B1 VH with T19K, E43Q, E54K, E62Q
VL: B1 VL with P28S, P29L, H39E, A94G
notes: one-arm
B48: H0610-G1dh/none-Hi-Kn010G3/L0089-k0 (antibody, V domains shown)
VH: B1 VH with T19K, E43Q, E54K, E62Q
VL: B1 VL with P28S, P29L, H39L, A94G
notes: one-arm
B49: H0610-G1dh/none-Hi-Kn010G3/L0090-k0 (antibody, V domains shown)
VH: B1 VH with T19K, E43Q, E54K, E62Q
VL: B1 VL with P28S, P29L, H39M, A94G
notes: one-arm

Target: T1, human GPC3 (human, UniProt P51654 25-563)
T1 construct: range 25-563; soluble analyte; also called soluble human GPC3; glypican 3
T1 sequence (P51654 25-563 limits assumed): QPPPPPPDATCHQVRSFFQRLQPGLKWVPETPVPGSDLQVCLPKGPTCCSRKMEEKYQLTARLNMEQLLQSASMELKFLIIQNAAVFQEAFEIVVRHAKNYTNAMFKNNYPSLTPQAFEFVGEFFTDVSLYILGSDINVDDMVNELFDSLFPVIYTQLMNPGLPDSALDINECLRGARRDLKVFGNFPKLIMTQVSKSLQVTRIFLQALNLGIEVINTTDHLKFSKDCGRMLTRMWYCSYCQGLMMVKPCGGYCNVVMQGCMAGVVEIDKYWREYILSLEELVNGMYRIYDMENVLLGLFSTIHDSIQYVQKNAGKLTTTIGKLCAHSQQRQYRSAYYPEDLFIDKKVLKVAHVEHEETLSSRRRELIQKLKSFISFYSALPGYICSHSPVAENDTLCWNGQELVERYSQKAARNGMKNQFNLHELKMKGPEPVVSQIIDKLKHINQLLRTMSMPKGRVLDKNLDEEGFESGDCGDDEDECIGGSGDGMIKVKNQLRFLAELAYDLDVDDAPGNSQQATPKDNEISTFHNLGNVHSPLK
Assay: SPR

Binder | Kd [nM]
B1 | 0.000525
B2 | 2.45
B3 | 0.763
B4 | 2.59
B5 | 0.871
B6 | 1.13
B7 | 1.52
B8 | 1.59
B9 | 0.0119
B10 | 1.83
B11 | 1.34
B12 | 0.0118
B13 | 0.393
B14 | 0.00412
B15 | 3.6
B16 | 0.692
B17 | 2.1
B18 | 4.43
B19 | 4.01
B20 | 3.04
B21 | 4.39
B22 | 3.3
B23 | 2.99
B24 | 1.55
B25 | 3.35

Binder | Kd [nM]
B26 | 1.82
B27 | 4.44
B28 | 3.72
B29 | 2.75
B30 | 3.41
B31 | 4.85
B32 | 4.27
B33 | 5.14
B34 | 4.57
B35 | 4.66
B36 | 5.45
B37 | 2.23
B38 | 5.28
B39 | 6.03
B40 | 3.37
B41 | 4.79
B42 | 4.2
B43 | 5.32
B44 | 2.85
B45 | 4.23
B46 | 3.43
B47 | 1.17
B48 | 5.24
B49 | 1.12
